Results reported in paper PMC5382721 (Cell reports, 2017).

How the values were obtained:
[1] = target: GST-eIF3c-G_(1–58) (yeast (S. cerevisiae)) (UniProt P32497); assay: pull-down
[2] = target: GST-eIF3c-E_(87–163) (yeast (S. cerevisiae)) (UniProt P32497); assay: pull-down
[3] = target: eIF1 (yeast (S. cerevisiae)) (UniProt P32911); assay: ITC
eIF1 = eIF1 (yeast (S. cerevisiae), UniProt P32911 1-108); assay: ITC
eIF1-L96P = eIF1-L96P (yeast (S. cerevisiae), UniProt P32911 1-108, L96P); assay: ITC
eIF1-K37E = eIF1-K37E (yeast (S. cerevisiae), UniProt P32911 1-108, K37E); assay: ITC
Chain of eIF1-K37E (P32911 whole entry K37E): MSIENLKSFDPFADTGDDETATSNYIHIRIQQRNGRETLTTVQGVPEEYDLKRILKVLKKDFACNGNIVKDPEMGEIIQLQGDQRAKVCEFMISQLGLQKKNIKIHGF

Chain of eIF1 (P32911 whole entry): as the sequence (P32911 whole entry K37E) above, with E37K counted along it
Chain of eIF1 (yeast (S. cerevisiae)) (P32911 whole entry): as the sequence (P32911 whole entry K37E) above, with E37K counted along it
Chain of eIF1-L96P (P32911 whole entry L96P): as the sequence (P32911 whole entry K37E) above, with E37K, L96P counted along it

Question: With “eIF1 (from UniProt P32911 1-108) (natural protein)” as the molecule, how does the amount of eIF1 bound relative to that bound to GST-eIF3c-F [1] read?
Answer: The amount of eIF1 bound relative to that bound to GST-eIF3c-F was < 10%.

Question: And the amount of eIF1 bound relative to that bound to GST-eIF3c-F [2]?
Answer: Its amount of eIF1 bound relative to that bound to GST-eIF3c-F is < 10%.

Question: What does the source list for “eIF3c-E_(87–163) (from UniProt P32497 87-163) (domain or fragment)”?
Answer: Kd [3]: > 100 µM; stoichiometry N (eIF3c molecules bound per eIF1 molecule) [3]: 0.4

B1: eIF3c-D_(58–163) (domain or fragment, yeast (S. cerevisiae), UniProt P32497 58-163, looked up)
chain: ADVDSDDSDAKPYGPDWFKKSEFRKQGGGSNKFLKSSNYDSSDEESDEEDGKKVVKSAKEKLLDEMQDVYNKISQAENSDDWLTISNEFDLISRLLVRAQQQNWGT
Question: With B1 as the molecule, how does the Kd (eIF1) read?
Answer: Its Kd is ~8 µM.

Question: What about the “stoichiometry N” value (eIF1) of the same molecule?
Answer: Its value is 1 eIF3c molecules bound per eIF1 molecule.

B2: eIF3c-B_(36–163) (domain or fragment, yeast (S. cerevisiae), UniProt P32497 36-163, looked up)
chain: SESELDQESDDSFFNESESESEADVDSDDSDAKPYGPDWFKKSEFRKQGGGSNKFLKSSNYDSSDEESDEEDGKKVVKSAKEKLLDEMQDVYNKISQAENSDDWLTISNEFDLISRLLVRAQQQNWGT
Question: With B2 as the molecule, how does the “fold reduction of affinity against WT eIF1” value (eIF1-L96P) read?
Answer: Its value is 10 fold.

Question: What about the “fold reduction of binding against WT eIF1” value (eIF1-K37E) of the same molecule?
Answer: Its value is 4 fold.

B3: eIF3c-F_(1–87) (domain or fragment, yeast (S. cerevisiae), UniProt P32497 1-87, looked up)
chain: MSRFFSSNYEYDVASSSSEEDLLSSSEEDLLSSSSSESELDQESDDSFFNESESESEADVDSDDSDAKPYGPDWFKKSEFRKQGGGS
Question: With B3 as the molecule, how does the Kd (eIF1) read?
Answer: Its Kd is ~1 µM.

B4: eIF3c-C_(36–87) (domain or fragment, yeast (S. cerevisiae), UniProt P32497 36-87, looked up)
chain: SESELDQESDDSFFNESESESEADVDSDDSDAKPYGPDWFKKSEFRKQGGGS
Question: Which Kd (eIF1) does the source give for B4 here?
Answer: The Kd was ~1 µM.
